This passage reports protein production results from a protein production outcome set (Wang et al. 2014).

The data set can be described thus: label from the status in PepcDB records.

With “MSQSSECARPHRRGFDFCASAVFLCTQRAQSVGGCAMRGCPLLLWRPETCQNPAPFCRGFAAQGFTAVSVVSRAVTKTTFFDENLIERVLWQFTMKEQRANAIPATCRYARYSANPTPTPRPVKINESDRTMNFEEKIATHYGHGNLTAAIRSGLQAQGITPEQASVEDLGPVDEFHIGGRAATVHFFDQIDLSETSKALDIGCGLGGAARYAAHSFGSQIEGIDLTPEYVETGGALCQWVGLSDKVNLSVASALSMPFESGDFDIAYMMHVGMNIEDKRALFKEVARVLKPGGTFAIYDIMRSNDEDLVYPVPWASSAETCCLAGPATYRAALEEGGFVVRQENDRRDFAIDFFEKMKKANAGQKSPPPLGLHVLMQQTTAEKIPNMIANLQAGRIKPVEIYAVKQ”, the protein production result is reported as “failed”.

Regarding “MSQSSKRKNDSVVETFKDIIPLTFGEEIGNAASHGAAALLTLFILPYAAVHSFNNGGTLESISVSVYVISIFMMFISSTIYHSMQNNTSHKYILRIIDHSMIYVAISGTYTPVLLSVVGGWLGWLVTILLWGTTLWGILYKSIATKVNHRLSLIVYLVMGWVGIIFLPIIIMRTSWWFIFFIFLGGLSYTIGAWFYAQKNKPYFHMIWHIFIVLASFLHMIGIFYFM”, the protein production entry was “failed”.

“MSQTLFWIAAACALAYLAMTARPASLMRSAVKTASVALLALMVLVSGGPVLLVLALALCALGDWLLSRETEATFMAGVGAFAAGHLAYVALFLTHPASDTGQLAAQWPLVAGLAALGLVMASLLAPRAGDLKGPVLAYVPIILGMGLAALTLPQAGVLAWVLPAAAAFIASDMILATEKFLLPPGHPALRLTPYLVWPLYWGAQMGFALALT”: the protein production result is recorded as “failed”. Take “MSQWTTVCKLDDILPGTGVCALVEQQQIAVFRPRNDEQVYAISNIDPFAQASVLSRGIVAEHQDDLWVASPLKKQHFRLYDGFCLEDGAYSVAAYDTQVTNGNVQISIADSDVAVDNSQPLPLEHHHHHH”: the protein production entry was “not failed”. The result for “MSRDLGRLLKIASNQMSTRFDIFAKKYDLTGTQMTIIDYLSRNKNKEVLQRDLESEFSIKSSTATVLLQRMEIKKLLYRKVSGKDSRQKCLKLTKKANKLETIILSYMDSDQSQMTSGLNKEEVVFLEKILKRMIESD” reads “not failed”.

With “MSRDTVRPPCVHPGFARPLPARASLPFLGRVSPGDSSRRAGRDGRKWGMESGPAIFAGTVFALFGGGLLTWTVSRVRHRAPVAHDVNPVASATLAGLAAVSALVLGAWCFTHL”, the protein production result is “failed”.

As to “MSRENNVQSTRAERKTLILALVAGMCSDALLSWLTMSSVPFSLFALIALVLSAQMLYQEYLAHPVAEEVPLVGLACFFVGAFGHSAFIKAQYPQEGSNFFSIVIVLLLIFWIGRKLGYIGKPR”, the protein production result is recorded as “failed”. In the case of “MSRFPRRFIDDSSMEDAGISLCPSIHYRPINPNDLDRLEQIHRDIFPIKYESEFFQSVVNGVDIVSWAAVDRSRPDDHSDELIGFVTAKFVLAKDSEIDDLIHYDSSKGEETLIYILTLGVVETYRNRGIAMSLISEVIKYASGLSVCRGVYLHVIAHNNAAICLYKRLMFRCVRRLHGFYLINRHHFDAFLFVYFINGSRTPCSPLEVAMFVVNYMKSGIKSVASKLANKDEKGLKWLFCKDTDCV”, the protein production entry is listed as “failed”. The result for “MSRKRSTKPKPAAKIALKKENDQFLEALKLYEGKQYKKSLKLLDAILKKDGSHVDSLALKGLDLYSVGEKDDAASYVANAIRKIEGASASPICCHVLGIYMRNTKEYKESIKWFTAALNNGSTNKQIYRDLATLQSQIGDFKNALVSRKKYWEAFLGYRANWTSLAVAQDVNGERQQAINTLSQFEKLAEGKISDSEKYEHSECLMYKNDIMYKAASDNQDKLQNVLKHLNDIEPCVFDKFGLLERKATIYMKLGQLKDASIVYRTLIKRNPDNFKYYKLLEVSLGIQGDNKLKKALYGKLEQFYPRCEPPKFIPLTFLQDKEELSKKLREYVLPQLERGVPATFSNVKPLYQRRKSKVSPLLEKIVLDYLSGLDPTQDPIPFIWTNYYLSQHFLFLKDFPKAQEYIDAALDHTPTLVEFYILKARILKHLGLMDTAAGILEEGRQLDLQDRFINCKTVKYFLRANNIDKAVEVASLFTKNDDSVNGIKDLHLVEASWFIVEQAEAYYRLYLDRKKKLDDLASLKKEVESDKSEQIANDIKENQWLVRKYKGLALKRFNAIPKFYKQFEDDQLDFHSYCMRKGTPRAYLEMLEWGKALYTKPMYVRAMKEASKLYFQMHDDRLKRKSDSLDENSDEIQNNGQNSSSQKKKAKKEAAAMNKRKETEAKSVAAYPSDQDNDVFGEKLIETSTPMEDFATEFYNNYSMQVREDERDYILDFEFNYRIGKLALCFASLNKFAKRFGTTSGLFGSMAIVLLHATRNDTPFDPILKKVVTKSLEKEYSENFPLNEISNNSFDWLNFYQEKFGKNDINGLLFLYRYRDDVPIGSSNLKEMIISSLSPLEPHSQNEILQYYL” reads “failed”.

“MSRKRTENGSESGPATSHVPVDRFGFLKQEHANSPERFSKSKTTSSTDHDREERKVRKWRKMIGVGGSDWKHYVRRKPNVVRRRIRKGIPDCLRGLVWQLISGSRDLLLMNPGVYEQLVIYETSASELDIIRDISRTFPSHVFFQKRHGPGQRSLYNVLKAYSVYDRDVGYVQGMGFIAGLLLLYMSEEDAFWLLVALLKGAVHAPMEGLYHAGLPLVQQYLFQLESLVKELIPKLGEHFTQEMINPSMYASQWFITVFSYSFPFPLALRIWDVFLSEGVKIVFKVGLALLKYCQDELVSKVTV”: the protein production entry is “failed”. Regarding “MSRMETSRTLSAFPKIISVDDHTVEPPDVWRDRLPKKYQDTGPRIVRAPLKEMTFLGGKFAPVMGGPGDDGPLGDWWVYEDLHRPLTRLDTAVGYSRDEIKLEVITYEQMRPGSYDVPRRLADMDVNHVQSALCFPTFPRFCGQTFTEAKDRELGLLGVRAYNDWMVEEWCGPDAHGRLIPLTLVPLWDARLAAAEVRRNAARGVRAVAFSEIPPHLGLPSVHTDDWDPFLAACDETGTVIAMHIGSSSRMPSTSADAPPAVGSTITFANCCFSMVDWLMSGKFERFPNLRVMYAEGQIGWIPYILERADVVWEENRGWGGVADKVHRPPSELFAGHVFGCFFDDAFGLRNLDAIGIGNVLYETDYPHSDSTWPKSREVGEAQMGHLEAEVVERIVRGNAIELLGLTDDGLWAGPGGAR”, the protein production entry is “failed”.

With “MSRPADKPQPFYFAYGSNMNPAQIEARCRKPEVVATARLPDHRLGFFGSSKIWDGGEESAQPEPGADLWGVVYRLSFHDAEILDTWQKVWLDGTGPYFHFPTQVFDAEGRNYPVLLYKRDVLGPRQKPSAPYLDHIIAGAMARALPPPYIDLLRAIPTCQASTPVPRKASFNPEFFAGLACQCGDLEHHHHHH”, the protein production entry was “failed”.

“MSRQANRGTESKKMSSELFTLTYGALVTQLCKDYENDEDVNKQLDRMGYNIGVRLIEDFLARSNVGRCHDFRETADVIAKVAFKMYLGITPSITNWSPAGDEFSLILENNPLVDFVELPDNHSALIYSNLLCGVLRGALEMVQMAVEAKFVQDTLKGDGVTEIRMRFIRRIEDNLPAGEE”: the protein production entry is “not failed”. “MSRQFIIQLFLALLLCCLTITFSSIAKSAETTSTDDATDLVVAQKIIKNQQQTEKSSSASAVAVQQPQIANDMADGQSIRNLPSLNEPVIDQANLLSSEQRQALSDQIRQLYQTGKAQMAVVIVPTTGQEDIFDYAMRVGEKWQLGSAKRDNGILMAIAVNDRRIQILTGYGLEGVLPDIVVGRIIRDQITPYFKQAQYAQGIQSGVNEIEKIVNMDPEIAQQAAQDLKQRQEQALHEQQARSQMMVYSLIIVVVGIFASYIVGNRLSAATAGVAGIAAGVISGVGLITSLLIGLGIFLLLITSLAQLILQIFASGGGRGGGGGFGGGGGGGYSGGGGSFGGGGASGSW”: the protein production result was “failed”. The result for “MSRRDFTRYVRDKAWLAIPGWLFVAALTLLALRKHLSNLRQHQQLLQGNERIRDSEEQARLILDTAPLALLLVNPQTARIRHANSLAREMLGLPPRDPEQAAGSELNLPLKLQPVEQWLSEGEEVLQQEVELELEDKSRLWAIVSLRRLGHDSQPSALIALYDISGRKLLEQQLHESNQQLAEMAVTDPLTRLYNRRHADMVLRDEISRCERYGQTMAIAVFDIDHFKRFNDQYGHQAGDDVLVAVANALRDTTRNTDINARIGGEEFMVIFPYTRLRDAHKVMSRLQMALTHTTFPFVEQRITFSGGVTDWRPGDSPALMMSRADKLLYDAKQAGRNVVLSDQEEA” reads “failed”; that for “MSRRSHNPQSCSSVPTALINGPRVETMTDSVLDVTADALEQAGAHPHRLVVRQHGQVVGRRRWAPWSPDVPSLVYSCSKTFTSAAVGIAVNRGAFGYDDTLADLWPQACTANTGPVAKSMTVRNALSMSTGHSPEQLLEPTLMSRRLPDLNTARILLATEPEGRPGIDFAYNNLATWMLSRLVAQHTGEDVDTIITKEVLDPIGAGPHTWVRDADGIPMGFSGLHIDAEDLSLFGQLLLDDGVHEGARLLPEEWIRQHRVRQVNCDSETDPEWGMGYGWQTWMSSHGYRLDGAFGQYVLIVPEVDAVITMTNEASEGPGDKQAILQAVWDHLLPALADGFQPQPEEIVRTVPTVTGEFDSARSVQGIAPDGSYIVVSPHKESRTWAMSWRCPGTFSHPTDETLDIAVGYEEWQTSHCRVGDDAIDIATSGGWQGETFVARLCVISTPHTLTLRMTPEATTTEWDNEPLNPGGLLGLVHPELRR”, “failed”. As for “MSRVFVIGAAGKVGQRLIKKLGDGGHEVIALHRKEEQSVLIKAAGALPLLANLVEMDAAALSSAMAGSDVVVFTAGAGGAGIELTNAIDGEGLKTSVAAAELAGVRRFLLVSAFPEAARGTDTSAGFENYMRVKKHADVCLASSELDWVILRPGTLVDSAGSGQVRAGLAIPYGDIPRDDVAAFLAALVDQPEISRQIIELTEGTTPVELAIKALGTR”, the entry is “failed”; as for “MSRVSLRLWDPLVRLFHVSIAGVFVANYFFNEAGDDWHIWLGYYAVAWLAVRVVWGFLGPTSARWSDFWPSPARLRAHVRSLIDRKPVHRLGHSPLGALVMVLMMALIFGMGLTGFLMEEVDALWGADWPLQTHEILANTLCALVVLHMAAAIFESFQVRDNLPLSMLTGKRRPLPEDDYR”, “failed”.

In the case of “MSRYRLREHAWCLRQLNVSNKSFLKRSFLVGLGYTPPIRYFIDIGPLPNWTRKEVNELILGRTRVRSPILKLLIELFVHRICSDPRFQVKSSSVNA”, the protein production result was “failed”. As for “MSSALLRAAYAYDRLRAHPPEVAGQIATAMASAVHPKGEEPVFLELGVGTGRIALPLIARGYRYIALDADAAMLEVFRQKIAGVDRKVQVVQADARAIPLPDESVHGVIVVHLWHLVPDWPKVLAEAIRVLKPGGALLEGWDQAEASPEWTLQERWRAFAAEEGFPVERGLHAKRLKEVEEALRRLGLKPRTREVARWREERTPREALEALSERLYSFTQGLPEPVHARVMERLWAWAEAELGDLDRPFPVEKRFLLRVSRLG”, the protein production entry was “not failed”. The result for “MSSCCGPASPASSGPRTRRPRTATAQGDRHLFFAVYTIVPTDAYFGDAAVCFPPARPHMPIRRSLTIALFLLFPALGSGCQSTAPSTSSPSATEDAPAPLIVISIDGLRWDYLDRHEAPALSRIAEDGAHVDHLTPVFPTKTFPNHYSAVTGLYPSRHGIIANTMYDPAMDASFSLSDREAVMNPDWWGGEPIWVTAEQQGRTAATYFWPGSEAPVRGTRPTEWFEYDGSVPGTTRVDQALQWLDRPADTRPDLITLYFSRVDTKGHRHGPRSDSVATALREVDGFIQRLLDGLAARGLADAVNVMVTGDHGMSPTSRDRTIVLDDYIDPDDVRLTARNPVAMMEPRPGIPADSVVTALDQAPHLSAYRRGTLPDTLHFEGHRRIPSVIAVADDRWSIRTQAWMDENPDWTGGGTHGYDPRSENMHTLLAARGPGFRRNTTVDQLSLLHLYELMSALLDVEPAPNDGRLEAARPLLLPASARTAE” reads “failed”.
